The record followed here is PMC6728143, “Distinct mechanisms of microRNA sorting into cancer cell-derived extracellular vesicle subtypes”.

For data set [1], the target named is T1, Lupus La protein (La) (Homo sapiens, UniProt P05455 1-408).
T1 sequence: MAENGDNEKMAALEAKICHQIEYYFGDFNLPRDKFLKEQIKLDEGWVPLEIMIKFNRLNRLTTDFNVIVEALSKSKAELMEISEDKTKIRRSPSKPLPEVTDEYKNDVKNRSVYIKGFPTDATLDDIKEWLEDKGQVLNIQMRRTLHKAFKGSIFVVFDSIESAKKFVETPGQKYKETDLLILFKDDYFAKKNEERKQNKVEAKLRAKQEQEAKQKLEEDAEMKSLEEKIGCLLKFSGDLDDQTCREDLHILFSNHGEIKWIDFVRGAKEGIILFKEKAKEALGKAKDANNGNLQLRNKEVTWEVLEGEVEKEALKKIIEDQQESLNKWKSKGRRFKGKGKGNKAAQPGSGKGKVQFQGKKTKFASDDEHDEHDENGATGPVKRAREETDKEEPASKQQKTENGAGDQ
Briefly: EMSA; EMSA: 1 nM RNA, La 250 pM-2 uM; 25 mM Tris pH 8, 100 mM KCl, 1.5 mM MgCl2, 0.2 mM EGTA, 0.05% NP-40, 50 ug/ml heparin; 30 C 30 min, then ice 10 min; 6% gel at 4 C; Hill fit. The following applies: protein: recombinant; tags: N-terminal 6xHis; label: 5' IRDye800CW.

The target in data set [2] is T1, Lupus La protein (La). The description is as above. The following applies: protein: recombinant; tags: N-terminal 6xHis; label: 5' IRDye800CW. This is another data set of the same source.

Regarding UGGAGUGUGACAAUGGUGAAAG (ssRNA) [miR-122 3'mut], in the data set with Lupus La protein (La) [1], the Kd is 538 nM.
Same read-out and setting: next, UGGAGUGUGACAAUGGUGUUUG (ssRNA) [miR-122-5p WT]: 4.8 nM.
On to ACACGUGUGACAAUGGUGUUUG (ssRNA) [miR-122 5'mut], for which the binding signal with Lupus La protein (La) [2] is ~10 fold lower affinity than WT.

Usually Kd stands for the free concentration of one partner at which half of the binding sites on the other are occupied at equilibrium, for simple one-to-one binding.
